{
  "source": "paper PMC10201424",
  "about": "“Biochemical characterisation of Mer3 helicase interactions and the protection of meiotic recombination intermediates” (Nucleic Acids Research, 2022)",
  "settings_in_all_cases": "both partners purified",
  "key": {"[1]": {"molecular_target": "T1, Top3/GST-Rmi1 complex (S. cerevisiae, UniProt P13099 1-656; Q02685 1-241)", "T1 construct": "Top3 (type IA topoisomerase), S. cerevisiae, from SK1 strain genomic DNA; untagged; Rmi1, S. cerevisiae, from SK1 strain genomic DNA; also called GST-tagged Top3–Rmi1; GST-Rmi1/Top3; source: Hi5 insect cells (co-expressed from pBIG1a), purified (GSTrap, ResourceS, SEC); not shown: GST, N-terminal, kept", "T1 sequence (looked up) 1": "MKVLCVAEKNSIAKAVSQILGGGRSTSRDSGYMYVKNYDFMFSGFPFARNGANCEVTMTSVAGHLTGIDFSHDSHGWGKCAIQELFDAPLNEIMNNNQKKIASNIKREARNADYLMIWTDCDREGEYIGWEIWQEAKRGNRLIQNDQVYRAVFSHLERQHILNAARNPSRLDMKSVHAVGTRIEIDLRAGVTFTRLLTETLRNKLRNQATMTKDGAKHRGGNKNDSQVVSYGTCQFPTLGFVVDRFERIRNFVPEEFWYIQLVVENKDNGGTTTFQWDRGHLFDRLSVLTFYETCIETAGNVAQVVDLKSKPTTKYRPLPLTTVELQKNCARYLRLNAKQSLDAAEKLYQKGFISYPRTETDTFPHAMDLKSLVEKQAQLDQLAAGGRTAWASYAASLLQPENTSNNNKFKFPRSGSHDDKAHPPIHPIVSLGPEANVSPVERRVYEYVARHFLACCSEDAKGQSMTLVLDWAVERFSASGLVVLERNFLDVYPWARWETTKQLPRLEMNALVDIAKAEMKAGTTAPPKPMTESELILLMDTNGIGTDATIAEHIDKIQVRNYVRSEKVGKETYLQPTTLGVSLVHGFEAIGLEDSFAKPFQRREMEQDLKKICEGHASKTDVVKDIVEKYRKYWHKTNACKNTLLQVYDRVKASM", "T1 sequence (looked up) 2": "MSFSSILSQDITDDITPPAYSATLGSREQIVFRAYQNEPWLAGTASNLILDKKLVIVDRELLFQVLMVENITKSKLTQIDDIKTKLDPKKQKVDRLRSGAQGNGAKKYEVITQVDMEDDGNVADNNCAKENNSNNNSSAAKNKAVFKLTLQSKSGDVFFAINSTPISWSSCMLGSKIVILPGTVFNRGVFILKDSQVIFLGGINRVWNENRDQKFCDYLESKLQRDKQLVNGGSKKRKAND", "assay": "pull-down; competition: Top3/GST-Rmi1 (1 μM) on glutathione beads, Mer3-Strep 1 μM, His-Sgs1(1–107) 8 or 25 μM; 25 mM HEPES pH 7.5, 5% glycerol, 100 mM NaCl, 1 mM TCEP, 0.1% Tween-20; Coomassie"}, "[2]": {"molecular_target": "T2, Mer3-Strep (full-length S. cerevisiae Mer3 with C-terminal 2xStrep-II tag) (S. cerevisiae, UniProt P51979 1-1187, phosphorylated in insect cells; high-confidence sites S17, S80, T100, S398, S958, T1092)", "T2 sequence (looked up)": "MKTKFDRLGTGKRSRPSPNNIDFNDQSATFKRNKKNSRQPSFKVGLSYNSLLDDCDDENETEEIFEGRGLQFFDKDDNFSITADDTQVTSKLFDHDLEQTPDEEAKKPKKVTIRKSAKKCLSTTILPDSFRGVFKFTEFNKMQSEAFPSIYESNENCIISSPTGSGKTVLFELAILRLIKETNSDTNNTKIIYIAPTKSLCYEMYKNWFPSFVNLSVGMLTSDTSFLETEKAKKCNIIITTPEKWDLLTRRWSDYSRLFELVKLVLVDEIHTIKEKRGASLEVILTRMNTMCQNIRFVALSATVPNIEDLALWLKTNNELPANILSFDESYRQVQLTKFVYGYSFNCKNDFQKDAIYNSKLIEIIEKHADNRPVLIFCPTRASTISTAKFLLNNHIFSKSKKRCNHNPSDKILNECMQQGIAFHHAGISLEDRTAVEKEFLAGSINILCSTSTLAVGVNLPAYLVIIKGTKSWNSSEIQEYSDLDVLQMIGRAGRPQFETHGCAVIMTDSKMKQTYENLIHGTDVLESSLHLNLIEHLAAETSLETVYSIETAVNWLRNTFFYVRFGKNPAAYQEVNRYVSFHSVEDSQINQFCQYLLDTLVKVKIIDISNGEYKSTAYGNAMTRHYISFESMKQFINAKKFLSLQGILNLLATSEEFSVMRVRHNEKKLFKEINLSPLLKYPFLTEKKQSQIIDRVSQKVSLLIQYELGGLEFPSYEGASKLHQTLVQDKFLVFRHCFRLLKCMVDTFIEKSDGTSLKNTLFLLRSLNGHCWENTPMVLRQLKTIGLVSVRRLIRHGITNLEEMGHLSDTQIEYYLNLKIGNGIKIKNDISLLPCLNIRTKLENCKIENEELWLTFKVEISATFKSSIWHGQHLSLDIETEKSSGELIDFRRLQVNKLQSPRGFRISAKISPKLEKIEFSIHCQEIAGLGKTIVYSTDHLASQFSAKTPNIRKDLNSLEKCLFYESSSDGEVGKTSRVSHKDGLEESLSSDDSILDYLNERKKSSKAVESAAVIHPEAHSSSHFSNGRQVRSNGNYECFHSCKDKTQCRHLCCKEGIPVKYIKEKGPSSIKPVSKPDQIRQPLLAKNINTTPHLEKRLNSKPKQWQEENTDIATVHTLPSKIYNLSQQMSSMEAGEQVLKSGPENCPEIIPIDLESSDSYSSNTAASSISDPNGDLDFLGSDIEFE", "assay": "pull-down; Mer3-Strep (0.7 μM) on streptavidin magnetic beads, His-Dmc1 3.2 μM or Rad51 2.8 μM; 25 mM HEPES pH 7.5, 5% glycerol, 100 mM NaCl, 1 mM TCEP, 0.1% Tween-20; stained gel"}, "[3]": {"molecular_target": "T3, Top3/Rmi1 complex (as used in MST and XL-MS) (S. cerevisiae, UniProt P13099 1-656; Q02685 1-241)", "T3 construct": "Top3 (type IA topoisomerase), S. cerevisiae, from SK1 strain genomic DNA; untagged; Rmi1, S. cerevisiae, from SK1 strain genomic DNA; The methods describe a GST-tagged and an untagged (3C protease cleaved) preparation; source: Hi5 insect cells (co-expressed from pBIG1a), purified", "T3 sequence (looked up) 1": "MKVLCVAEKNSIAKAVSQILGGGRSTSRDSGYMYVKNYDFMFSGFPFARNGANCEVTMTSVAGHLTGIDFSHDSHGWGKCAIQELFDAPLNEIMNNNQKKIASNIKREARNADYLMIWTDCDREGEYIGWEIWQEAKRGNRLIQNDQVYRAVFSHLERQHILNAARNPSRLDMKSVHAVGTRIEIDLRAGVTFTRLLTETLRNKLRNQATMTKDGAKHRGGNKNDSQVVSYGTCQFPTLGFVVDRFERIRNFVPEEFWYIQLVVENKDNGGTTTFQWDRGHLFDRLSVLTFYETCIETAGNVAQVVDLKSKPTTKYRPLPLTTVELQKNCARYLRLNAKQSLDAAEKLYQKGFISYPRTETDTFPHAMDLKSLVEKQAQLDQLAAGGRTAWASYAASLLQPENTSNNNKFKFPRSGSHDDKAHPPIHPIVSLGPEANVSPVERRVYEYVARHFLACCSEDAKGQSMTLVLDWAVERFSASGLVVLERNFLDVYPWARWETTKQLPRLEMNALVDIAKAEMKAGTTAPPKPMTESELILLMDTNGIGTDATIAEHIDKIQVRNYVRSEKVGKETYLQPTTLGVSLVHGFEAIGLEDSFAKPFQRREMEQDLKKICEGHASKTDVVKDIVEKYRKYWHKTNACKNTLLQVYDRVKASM", "T3 sequence (looked up) 2": "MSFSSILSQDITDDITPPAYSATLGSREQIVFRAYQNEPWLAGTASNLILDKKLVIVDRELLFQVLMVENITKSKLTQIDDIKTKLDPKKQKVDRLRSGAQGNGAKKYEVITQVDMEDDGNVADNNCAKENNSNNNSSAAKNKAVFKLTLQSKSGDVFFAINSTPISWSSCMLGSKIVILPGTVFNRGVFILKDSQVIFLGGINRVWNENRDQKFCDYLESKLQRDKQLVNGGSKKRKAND", "assay": "MST; 30 nM RED-NHS labelled Sgs1(1–605), Top3–Rmi1 titrated; 50 mM Tris–HCl pH 7.4, 150 mM NaCl, 10 mM MgCl2, 0.05% Tween-20; 25°C; triplicates"}},
  "data": [
    {"binder": "His-tagged Sgs1(1–107) (domain or fragment, S. cerevisiae, UniProt P35187 1-107, looked up, also called shorter fragment of Sgs1; source: E. coli BL21 STAR, purified (Ni-NTA, ResourceQ, SEC); not shown: His6, N-terminal, kept) MVTKPSHNLRREHKWLKETATLQEDKDFVFQAIQKHIANKRPKTNSPPTTPSKDECGPGTTNFITSIPASGPTNTATKQHEVMQTLSNDTEWLSYTATSNQYADVPM", "values": [
      {"measurement": "binding result", "setting": "[1]", "result": "binds"}
    ]},
    {"binder": "His-Dmc1 (natural protein, yeast, UniProt P25453 1-334, looked up) MSVTGTEIDSDTAKNILSVDELQNYGINASDLQKLKSGGIYTVNTVLSTTRRHLCKIKGLSEVKVEKIKEAAGKIIQVGFIPATVQLDIRQRVYSLSTGSKQLDSILGGGIMTMSITEVFGEFRCGKTQMSHTLCVTTQLPREMGGGEGKVAYIDTEGTFRPERIKQIAEGYELDPESCLANVSYARALNSEHQMELVEQLGEELSSGDYRLIVVDSIMANFRVDYCGRGELSERQQKLNQHLFKLNRLAEEFNVAVFLTNQVQSDPGASALFASADGRKPIGGHVLAHASATRILLRKGRGDERVAKLQDSPDMPEKECVYVIGEKGITDSSD", "values": [
      {"measurement": "binding result", "setting": "[2]", "result": "binds"}
    ]},
    {"binder": "Sgs1(1–605) (domain or fragment, S. cerevisiae, UniProt P35187 1-605, looked up, Sgs1 helicase, S. cerevisiae, from SK1 strain genomic DNA, residues 1-605; For MST the fragment was labelled with RED-NHS dye; also called untagged Sgs1(1–605); N-terminal fragment of Sgs1; source: E. coli BL21 STAR, purified (MBPtrap, ResourceQ, 3C cleavage, SEC); not shown: His6, N-terminal, cleaved; MBP, N-terminal, cleaved) MVTKPSHNLRREHKWLKETATLQEDKDFVFQAIQKHIANKRPKTNSPPTTPSKDECGPGTTNFITSIPASGPTNTATKQHEVMQTLSNDTEWLSYTATSNQYADVPMVDIPASTSVVSNPRTPNGSKTHNFNTFRPHMASSLVENDSSRNLGSRNNNKSVIDNSSIGKQLENDIKLEVIRLQGSLIMALKEQSKLLLQKCSIIESTSLSEDAKRLQLSRDIRPQLSNMSIRIDSLEKEIIKAKKDGMSKDQSKGRSQVSSQDDNIISSILPSPLEYNTSSRNSNLTSTTATTVTKALAITGAKQNITNNTGKNSNNDSNNDDLIQVLDDEDDIDCDPPVILKEGAPHSPAFPHLHMTSEEQDELTRRRNMRSREPVNYRIPDRDDPFDYVMGKSLRDDYPDVEREEDELTMEAEDDAHSSYMTTRDEEKEENELLNQSDFDFVVNDDLDPTQDTDYHDNMDVSANIQESSQEGDTRSTITLSQNKNVQVILSSPTAQSVPSNGQNQIGVEHIDLLEDDLEKDAILDDSMSFSFGRQHMPMSHSDLELIDSEKENEDFEEDNNNNGIEYLSDSDLERFDEERENRTQVADIQELDNDLKIITERKL", "values": [
      {"measurement": "Kd", "setting": "[3]", "result": "478 ± 205", "unit": "nM"}
    ]}
  ]
}
